The values that follow come from the supplement of paper PMC5998384.

In series [1] the test system is HeLa Kyoto. Put plainly: melting temperature (median over replicates), in situ; higher = more thermally stable.
Series [2] relates to HeLa Kyoto. Put plainly: solubility change mitosis vs G1/S (difference of NP-40 vs SDS log2 ratios) (log2 ratio difference); higher = more soluble in mitosis.
Series [3] relates to HeLa Kyoto. Put plainly: solubility in G1/S (NP-40 vs SDS abundance) (log2 ratio); higher = more soluble. The following applies: cell cycle stage: G1/S.
The subject of series [4] is HeLa Kyoto. The series can be described thus: thermal stability score vs G1/S (z-score of summed log2 fold changes over temperatures); higher = more thermally stable than in G1/S.
Setting [5] is: cell cycle stage: early G1 (4.5 h after nocodazole release).
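For melting temperature (median over replicates), in situ in this document: HeLa Kyoto cells synchronized by double thymidine or nocodazole block, proteins quantified by TMT10plex mass spectrometry, three independent biological replicates.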
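For solubility change mitosis vs G1/S (difference of NP-40 vs SDS log2 ratios) in this document: synchronized HeLa Kyoto cells (double thymidine block for G1/S, nocodazole release for mitosis), protein amounts in NP-40 versus SDS lysates quantified by mass spectrometry, three biological replicates.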
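For solubility in G1/S (NP-40 vs SDS abundance) in this document: HeLa Kyoto cells arrested at G1/S by double thymidine block, proteins quantified by TMT10plex mass spectrometry in mild NP-40 versus SDS extracts, three biological replicates.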
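For thermal stability score vs G1/S (z-score of summed log2 fold changes over temperatures) in this document: synchronized HeLa Kyoto cells, proteins quantified by TMT10plex mass spectrometry, three biological replicates, mitosis taken 0.5 h after nocodazole release, G1/S directly after double thymidine block.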

As for “MACAEFSFHVPSLEELAGVMQKGLKDNFADVQVSVVDCPDLTKEPFTFPVKGICGKTRIAEVGGVPYLLPLVNQKKVYDLNKIAKEIKLPGAFILGAGAGPFQTLGFNSEFMPVIQTESEHKPPVNGSYFAHVNPADGGCLLEKYSEKCHDFQCALLANLFASEGQPGKVIEVKAKRRTGPLNFVTCMRETLEKHYGNKPIGMGGTFIIQKGKVKSHIMPAEFSSCPLNSDEEVNKWLHFYEMKAPLVCLPVFVSRDPGFDLRLEHTHFFSRHGEGGHYHYDTTPDIVEYLGYFLPAEFLYRIDQPKETHSIGRD [C11ORF54]”, the melting temperature with HeLa Kyoto [1] (cell cycle stage: G1/S) came out at 55.7 °C; with HeLa Kyoto [1] (cell cycle stage: mitosis), 56.3 °C. The “solubility change mitosis (log2)” value with HeLa Kyoto [2] was -0.126. In addition, the “solubility in G1/S (log2)” value in the series with HeLa Kyoto [3] turned out to be 0.72. Besides, the thermal stability score was -2.98 in the series with HeLa Kyoto [4] (setting [5]) and -4.1 in the series on HeLa Kyoto [4] (cell cycle stage: mitosis).
Take “MADAWEEIRRLAADFQRAQFAEATQRLSERNCIEIVNKLIAQKQLEVVHTLDGKEYITPAQISKEMRDELHVRGGRVNIVDLQQVINVDLIHIENRIGDIIKSEKHVQLVLGQLIDENYLDRLAEEVNDKLQESGQVTISELCKTYDLPGNFLTQALTQRLGRIISGHIDLDNRGVIFTEAFVARHKARIRGLFSAITRPTAVNSLISKYGFQEQLLYSVLEELVNSGRLRGTVVGGRQDKAVFVPDIYSRTQSTWVDSFFRQNGYLEFDALSRLGIPDAVSYIKKRYKTTQLLFLKAACVGQGLVDQVEASVEEAISSGTWVDIAPLLPTSLSVEDAAILLQQVMRAFSKQASTVVFSDTVVVSEKFINDCTELFRELMHQKAEKEMKNNPVHLITEEDLKQISTLESVSTSKKDKKDERRRKATEGSGSMRGGGGGNAREYKIKKVKKKGRKDDDSDDESQSSHTGKKKPEISFMFQDEIEDFLRKHIQDAPEEFISELAEYLIKPLNKTYLEVVRSVFMSSTTSASGTGRKRTIKDLQEEVSNLYNNIRLFEKGMKFFADDTQAALTKHLLKSVCTDITNLIFNFLASDLMMAVDDPAAITSEIRKKILSKLSEETKVALTKLHNSLNEKSIEDFISCLDSAAEACDIMVKRGDKKRERQILFQHRQALAEQLKVTEDPALILHLTSVLLFQFSTHSMLHAPGRCVPQIIAFLNSKIPEDQHALLVKYQGLVVKQLVSQSKKTGQGDYPLNNELDKEQEDVASTTRKELQELSSSIKDLVLKSRKSSVTEE [UFL1]”: the melting temperature in the series on HeLa Kyoto [1] (cell cycle stage: G1/S) worked out at 50 °C; with HeLa Kyoto [1] (cell cycle stage: mitosis), 49.8 °C. Also, the “solubility change mitosis (log2)” value in the series with HeLa Kyoto [2] was -0.0952. In addition, the “solubility in G1/S (log2)” value in the series with HeLa Kyoto [3] was -0.013. Moreover, the thermal stability score in the series on HeLa Kyoto [4] (setting [5]) came out at 1.14; with HeLa Kyoto [4] (cell cycle stage: mitosis), 2.59.
As for “MADDAGLETPLCSEQFGSGEARGCRAAADGSLQWEVGGWRWWGLSRAFTVKPEGRDAGEVGASGAPSPPLSGLQAVFLPQGFPDSVSPDYLPYQLWDSVQAFASSLSGSLATQAVLLGIGVGNAKATVSAATATWLVKDSTGMLGRIVFAWWKGSKLDCNAKQWRLFADILNDVAMFLEIMAPVYPICFTMTVSTSNLAKCIVSVAGGATRAALTVHQARRNNMADVSAKDSSQETLVNLAGLLVSLLMLPLVSGCPGFSLGCFFFLTALHIYANYRAVRALVMETLNEGRLRLVLKHYLQRGEVLDPTAANRMEPLWTGFWPAPSLSLGVPLHRLVSSVFELQQLVEGHQESYLLCWDQSQNQVQVVLNQKAGPKTILRAATHGLMLGALQGDGPLPAELEELRNRVRAGPKKESWVVVKETHEVLDMLFPKFLKGLQDAGWKTEKHQLEVDEWRATWLLSPEKKVL [C16ORF58]”, the melting temperature with HeLa Kyoto [1] (cell cycle stage: G1/S) was 53.7 °C; in the series with HeLa Kyoto [1] (cell cycle stage: mitosis) it was 53.8 °C. For the same sequence, the “solubility change mitosis (log2)” value in the series with HeLa Kyoto [2] is -0.031. The “solubility in G1/S (log2)” value in the series with HeLa Kyoto [3] was -0.224. In addition, the thermal stability score was -0.365 with HeLa Kyoto [4] (setting [5]) and 0.0232 in the series on HeLa Kyoto [4] (cell cycle stage: mitosis).
“MADEAALALQPGGSPSAAGADREAASSPAGEPLRKRPRRDGPGLERSPGEPGGAAPEREVPAAARGCPGAAAAALWREAEAEAAAAGGEQEAQATAAAGEGDNGPGLQGPSREPPLADNLYDEDDDDEGEEEEEAAAAAIGYRDNLLFGDEIITNGFHSCESDEEDRASHASSSDWTPRPRIGPYTFVQQHLMIGTDPRTILKDLLPETIPPPELDDMTLWQIVINILSEPPKRKKRKDINTIEDAVKLLQECKKIIVLTGAGVSVSCGIPDFRSRDGIYARLAVDFPDLPDPQAMFDIEYFRKDPRPFFKFAKEIYPGQFQPSLCHKFIALSDKEGKLLRNYTQNIDTLEQVAGIQRIIQCHGSFATASCLICKYKVDCEAVRGDIFNQVVPRCPRCPADEPLAIMKPEIVFFGENLPEQFHRAMKYDKDEVDLLIVIGSSLKVRPVALIPSSIPHEVPQILINREPLPHLHFDVELLGDCDVIINELCHRLGGEYAKLCCNPVKLSEITEKPPRTQKELAYLSELPPTPLHVSEDSSSPERTSPPDSSVIVTLLDQAAKSNDDLDVSESKGCMEEKPQEVQTSRNVESIAEQMENPDLKNVGSSTGEKNERTSVAGTVRKCWPNRVAKEQISRRLDGNQYLFLPPNRYIFHGAEVYSDSEDDVLSSSSCGSNSDSGTCQSPSLEEPMEDESEIEEFYNGLEDEPDVPERAGGAGFGTDGDDQEAINEAISVKQEVTDMNYPSNKS [SIRT1]”: the melting temperature was 50.2 °C with HeLa Kyoto [1] (cell cycle stage: G1/S) and 50.1 °C in the series on HeLa Kyoto [1] (cell cycle stage: mitosis). In addition, the “solubility change mitosis (log2)” value in the series with HeLa Kyoto [2] was -0.0419. Moreover, the “solubility in G1/S (log2)” value in the series on HeLa Kyoto [3] was -0.0978. In addition, the results for the thermal stability score in the series on HeLa Kyoto [4] (setting [5]) and in the series on HeLa Kyoto [4] (cell cycle stage: mitosis) were 0.328 and 2.02, respectively.
For the sequence “MADEDLIFRLEGVDGGQSPRAGHDGDSDGDSDDEEGYFICPITDDPSSNQNVNSKVNKYYSNLTKSERYSSSGSPANSFHFKEAWKHAIQKAKHMPDPWAEFHLEDIATERATRHRYNAVTGEWLDDEVLIKMASQPFGRGAMRECFRTKKLSNFLHAQQWKGASNYVAKRYIEPVDRDVYFEDVRLQMEAKLWGEEYNRHKPPKQVDIMQMCIIELKDRPGKPLFHLEHYIEGKYIKYNSNSGFVRDDNIRLTPQAFSHFTFERSGHQLIVVDIQGVGDLYTDPQIHTETGTDFGDGNLGVRGMALFFYSHACNRICESMGLAPFDLSPRERDAVNQNTKLLQSAKTILRGTEEKCGSPQVRTLSGSRPPLLRPLSENSGDENMSDVTFDSLPSSPSSATPHSQKLDHLHWPVFSDLDNMASRDHDHLDNHRESENSGDSGYPSEKRGELDDPEPREHGHSYSNRKYESDEDSLGSSGRVCVEKWNLLNSSRLHLPRASAVALEVQRLNALDLEKKIGKSILGKVHLAMVRYHEGGRFCEKGEEWDQESAVFHLEHAANLGELEAIVGLGLMYSQLPHHILADVSLKETEENKTKGFDYLLKAAEAGDRQSMILVARAFDSGQNLSPDRCQDWLEALHWYNTALEMTDCDEGGEYDGMQDEPRYMMLAREAEMLFTGGYGLEKDPQRSGDLYTQAAEAAMEAMKGRLANQYYQKAEEAWAQMEE [EEF2K]”, the melting temperature came out at 47.7 °C with HeLa Kyoto [1] (cell cycle stage: G1/S) and 48.4 °C with HeLa Kyoto [1] (cell cycle stage: mitosis). Besides, the “solubility change mitosis (log2)” value in the series with HeLa Kyoto [2] was -0.158. The “solubility in G1/S (log2)” value in the series on HeLa Kyoto [3] was 0.0328. In addition, the thermal stability score came to 0.84 in the series on HeLa Kyoto [4] (setting [5]) and 1.21 with HeLa Kyoto [4] (cell cycle stage: mitosis).
For “MADEIAKAQVARPGGDTIFGKIIRKEIPAKIIFEDDRCLAFHDISPQAPTHFLVIPKKHISQISVAEDDDESLLGHLMIVGKKCAADLGLNKGYRMVVNEGSDGGQSVYHVHLHVLGGRQMHWPPG [HINT1]”, the values for the melting temperature in the series on HeLa Kyoto [1] (cell cycle stage: G1/S) and in the series with HeLa Kyoto [1] (cell cycle stage: mitosis) were 56.4 °C and 56 °C, respectively. Further, the “solubility change mitosis (log2)” value in the series on HeLa Kyoto [2] was 0.17. Further, the “solubility in G1/S (log2)” value with HeLa Kyoto [3] was 0.25. In addition, the thermal stability score is -5.39 in the series with HeLa Kyoto [4] (setting [5]) and -4.12 with HeLa Kyoto [4] (cell cycle stage: mitosis).
